Measurements reported in paper PMC12827327.

Tests used:
[1] = target: actin filament (F-actin) of chicken skeletal α-actin, pointed end (chicken) (UniProt P68139)
[2] = target: actin filament (F-actin) of chicken skeletal α-actin, pointed end (chicken) (UniProt P68139); assay: pyrene-actin pointed end elongation assay; apparent KD from inhibition of pointed end elongation; 0.8 µM F-actin seeds with 8 nM capping protein incubated with the titrated protein, 2 µM G-actin (8% pyrene-labeled) added; 10 mM HEPES pH 7.4, 50 mM KCl, 1 mM MgCl2, 1 mM EGTA; hyperbolic fit of normalized rates
[3] = target: actin filament (F-actin) of chicken skeletal α-actin, pointed end (chicken) (UniProt P68139); remark: listed apart in the source
[4] = target: actin filament (F-actin) of chicken skeletal α-actin, pointed end (chicken) (UniProt P68139); remark: listed apart in the source
[5] = target: actin filament (F-actin) of chicken skeletal α-actin, pointed end (chicken) (UniProt P68139); assay: pyrene-actin dilution-induced pointed end depolymerization assay; apparent KD from inhibition of pointed end depolymerization; 10 µM CP-capped pyrene F-actin (20% labeled) incubated with the protein 15 min on ice, diluted to 0.5 µM; hyperbolic fit of normalized rate constants

Sequence of human SH3BGRL-3 (Q9H299 whole entry): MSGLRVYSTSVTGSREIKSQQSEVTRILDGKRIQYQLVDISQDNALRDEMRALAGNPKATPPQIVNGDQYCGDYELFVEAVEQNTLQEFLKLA
Sequence of human SH3BGRL (O75368 whole entry): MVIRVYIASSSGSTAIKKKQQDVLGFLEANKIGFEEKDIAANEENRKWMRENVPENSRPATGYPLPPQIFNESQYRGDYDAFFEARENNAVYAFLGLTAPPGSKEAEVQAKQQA
Sequence of human tropomodulin-3 (Q9NYL9 whole entry): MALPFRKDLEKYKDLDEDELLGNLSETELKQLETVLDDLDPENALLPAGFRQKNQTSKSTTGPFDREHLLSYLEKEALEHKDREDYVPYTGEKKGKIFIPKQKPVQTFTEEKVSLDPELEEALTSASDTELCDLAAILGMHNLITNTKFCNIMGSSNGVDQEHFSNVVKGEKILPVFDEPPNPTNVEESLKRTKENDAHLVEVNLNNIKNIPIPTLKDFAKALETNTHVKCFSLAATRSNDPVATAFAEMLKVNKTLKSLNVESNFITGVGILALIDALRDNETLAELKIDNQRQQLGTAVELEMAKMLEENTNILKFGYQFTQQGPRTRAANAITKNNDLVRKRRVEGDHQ

Substance: human SH3BGRL (from UniProt O75368 1-114) (natural protein)
- concentration required for half-maximal inhibition of pointed end depolymerization (K50%), CP-capped pyrene F-actin [1]: 7.6 µM
- Kd [2]: 85 nM
- apparent rate of filament nucleation knuc, TIRFM, 1 µM ATTO-488 α-actin, 1-5 µM SH3BGRL (actin only: 5.1 × 10^-6) [3]: 2.22e-05 µm^-2 s^-1
- pyrene-actin bulk polymerization from 2 µM α-actin (5% pyrene-labeled), increasing SH3BGRL: increase of the net polymerization rate [4]: < 3 fold

Substance: human SH3BGRL-3 (from UniProt Q9H299 1-93) (natural protein)
- concentration required for half-maximal inhibition of pointed end depolymerization (K50%), CP-capped pyrene F-actin [1]: 7.7 µM
- Kd [2]: 31 nM
- apparent rate of filament nucleation knuc, TIRFM, 1 µM ATTO-488 α-actin, 0.5-5 µM SH3BGRL-3 (actin only: 5.1 × 10^-6) [3]: 3.42e-05 µm^-2 s^-1
- pyrene-actin bulk polymerization from 2 µM α-actin (5% pyrene-labeled), increasing SH3BGRL-3: increase of the net polymerization rate [4]: < 3 fold

Substance: human tropomodulin-3 (from UniProt Q9NYL9 1-352) (natural protein)
- Kd [5]: 130 nM
- Kd [2]: 180 nM
